Values joined by “and” are separate entries in the source; they are usually repeats but may differ in a detail not shown here. Equal values may be shown once.
Conditions: Equus caballus, pH 6, 25 °C, transition: 2
[1] = GdnHCl, CD, sodium cacodylate, NaCl, reversible: yes, structure 1HRC
[2] = GdnHCl, sodium cacodylate 100 mM, NaCl 100 mM, reversible: no, structure 1HRC
[3] = Urea, CD, sodium cacodylate, NaCl, reversible: yes, structure 1HRC
[4] = Urea, sodium cacodylate 100 mM, NaCl 100 mM, reversible: no, structure 1HRC
[5] = GdnHCl, CD, sodium cacodylate, NaCl, reversible: yes

Chain of Cytochrome c wild type, P00004 (P00004 whole entry): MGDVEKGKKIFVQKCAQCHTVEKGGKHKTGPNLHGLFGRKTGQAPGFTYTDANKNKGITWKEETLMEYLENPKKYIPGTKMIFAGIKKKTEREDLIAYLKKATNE
Chain of Cytochrome c L95I, P00004 (P00004 whole entry L95I): as the sequence (P00004 whole entry) above, with L95I counted along it
Chain of Cytochrome c L95V, P00004 (P00004 whole entry L95V): as the sequence (P00004 whole entry) above, with L95V counted along it

Substance | ddG of mutation (higher = less stable) [1] | denaturant m value [1] | denaturant midpoint (higher = more stable) [1] | unfolding free energy [1] | ddG of mutation (higher = less stable) [2] | denaturant m value [2] | denaturant midpoint (higher = more stable) [2] | unfolding free energy [2] | ddG of mutation (higher = less stable) [3] | denaturant m value [3] | denaturant midpoint (higher = more stable) [3] | unfolding free energy [3] | ddG of mutation (higher = less stable) [4] | denaturant m value [4] | denaturant midpoint (higher = more stable) [4] | unfolding free energy [4] | denaturant m value [5] | denaturant midpoint (higher = more stable) [5] | unfolding free energy [5] | unfolding free energy (Urea, sodium cacodylate 100 mM, NaCl 100 mM, reversible: yes)
Cytochrome c L95I, P00004 | 1.31 kcal/mol and 1.51 kcal/mol | 3.59 kcal/mol/M and 3.64 kcal/mol/M | 2.14 M and 2.15 M | 7.69 kcal/mol and 7.95 kcal/mol | 1.54 kcal/mol and 1.1 kcal/mol and 1.51 kcal/mol | 3.65 kcal/mol/M and 3.49 kcal/mol/M and 3.64 kcal/mol/M | 2.18 M and 2.06 M and 2.15 M | 7.96 kcal/mol and 7.17 kcal/mol and 7.95 kcal/mol | 1.73 kcal/mol and 1.68 kcal/mol | 1.48 kcal/mol/M and 1.47 kcal/mol/M | 5.87 M and 5.89 M | 8.68 kcal/mol and 8.7 kcal/mol | 1.68 kcal/mol and 1.83 kcal/mol | 1.49 kcal/mol/M and 1.47 kcal/mol/M | 5.9 M and 5.89 M | 8.78 kcal/mol and 8.65 kcal/mol and 8.7 kcal/mol |  |  |  | 
Cytochrome c L95V, P00004 | 1.66 kcal/mol and 1.82 kcal/mol | 3.54 kcal/mol/M and 3.61 kcal/mol/M | 2.07 M and 2.11 M | 7.34 kcal/mol and 7.64 kcal/mol |  |  | 2.1 M and 2.01 M and 2.11 M |  | 2.36 kcal/mol | 1.47 kcal/mol/M | 5.46 M | 8.02 kcal/mol |  | 1.48 kcal/mol/M and 1.47 kcal/mol/M | 5.46 M and 5.43 M |  |  |  |  | 
Cytochrome c wild type, P00004 |  |  |  |  |  |  |  |  |  |  |  |  |  |  |  |  | 3.64 kcal/mol/M and 3.73 kcal/mol/M | 2.47 M and 2.53 M | 9 kcal/mol and 9.46 kcal/mol | 10.5 kcal/mol and 10.3 kcal/mol and 10.4 kcal/mol

Source: FireProtDB (doi:10.1016/j.ijbiomac.2020.05.059)
